Source: patent US9603953B2, “Dendrimer compositions, methods of synthesis, and uses thereof” (priority 2014, dated 2017)
Entries after “also recorded” stand apart in the source; their conditions may differ.

Columns and labels:
humans = details: 1.3 GBq (35 mCi) dose; cited from earlier work
Wistar rats = test: Acute toxicity test after intravenous and intraperitoneal administration in the rat (Example 5); format: in vivo; details: male Wistar rats, intravenous injection
Experimental: Species: Wistar rats RjHan: Wi (free of specific pathogens)
Number and sex and Weight: 6 healthy adult rats (males), average weight 300 g
3 groups of male rats: • Group 1 (“G5”): 2 rats (1 and 2) receiving 0.1 ml of labeled solution of dendrimer alone, one via intravenous administration, the other intraperitoneally 1 • Group 2 (“G5-HLS”): 2 rats (3 and 4) receiving 0.1 ml of the solution of the test item “G5 dendrimer {1-nitro-1H-imidazole-methyl -1,2,3-triazol-methyl-di(2-pycolyl)amine}”, one via intravenous administration, the other intraperitoneally • Group 3 (“HLS”): 2 rats (n ° 4 and 5) receiving 0.1 ml of the labeled 1-nitro-1H-imidazole-methyl -1,2,3-triazole-methyl-di-(2-pycolyl) amine, one via intravenous administration, the other intraperitoneally

[1] = Biodistribution after intravenous (intravascular) administration in the rat (Example 5); format: in vivo
Source text: (§1) The removed organs (brain, kidney, liver, heart, intestine, lung, gonads, blood, urine) were weighed and their activities were counted on NaI gamma camera.

[2] = Biodistribution after in situ direct intrahepatic injection in the rat (Example 6); format: in vivo
Experimental: They were autopsied and major organs were observed macroscopically.
as §1
The assessment of radioactivity was carried out on the various organs and the carcass alone, urine and whole blood.
FIG. 6 is a scintigraphic image of biodistribution after injection: it will be noted that only the liver, stomach and intestines are discernible.

| Substance | systemic toxicity in humans (humans) | precipitation or thrombus formation at the injection site (Wistar rats) | liver binding after intravascular administration [1] | retention at the site of introduction ([2]; male rat, laparotomy and direct injection into a liver segment, listed as dendrimer conjugate) | hepatic binding rate ([2]; rat, direct intrahepatic injection, sacrifice at 60 min, 99mTc-labelled) | biodistribution outside the targeted site ([2]; rat, in situ administration at a hepatic lobe, scintigraphy (FIG. 6)) | initial injected dose by hepatic mass charged with the test item ([2]; rat, in situ intrahepatic injection, liver) |
| --- | --- | --- | --- | --- | --- | --- | --- |
| rhenium-188 hydroxyethylidene diphosphonate | no significant toxicity | – | – | – | – | – | – |
| Dendrimer G5 {1-nitro-1H-Imidazole-methyl-1,2,3-triazol-methyl-di-(2-pycolyl)amine} | – | no precipitation was observed or thrombus formation | 1.53 % DIg | remains almost stable at the site of introduction; also recorded: has not moved a lot from the site of its deposition | 53.7% | negligible | 33.5 % DIg |
